This is an account of results in publication PMC9371926 (Nucleic Acids Research, 2022).

Holding throughout (experiment): native MS
Series [1] has as its target T1, Methanocaldococcus jannaschii (Mja) RPP30 (Methanocaldococcus jannaschii, UniProt Q58539 1-232).
T1 sequence: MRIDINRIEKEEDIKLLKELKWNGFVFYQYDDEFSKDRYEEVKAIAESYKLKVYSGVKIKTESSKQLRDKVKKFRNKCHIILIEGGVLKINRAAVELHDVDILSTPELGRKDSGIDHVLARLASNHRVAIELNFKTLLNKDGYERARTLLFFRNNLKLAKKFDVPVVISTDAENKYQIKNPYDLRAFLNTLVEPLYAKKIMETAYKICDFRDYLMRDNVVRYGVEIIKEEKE

The series “native MS” concerns the molecule itself.
In series [2] the target is T2, Methanocaldococcus jannaschii (Mja) RPP21 (Methanocaldococcus jannaschii, UniProt Q58372 1-128).
T2 sequence: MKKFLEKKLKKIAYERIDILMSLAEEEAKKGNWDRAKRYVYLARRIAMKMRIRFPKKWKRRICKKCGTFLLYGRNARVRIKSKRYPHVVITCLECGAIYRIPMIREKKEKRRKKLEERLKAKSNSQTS

B1: Methanocaldococcus jannaschii (Mja) POP5 (natural protein)
chain: MIEMLKTLPPTLREKKRYIAFKILYDEELKEGEVVNLIRKAVLEYYGSWGTSKANPWLVYYDFPYGILRCQRDNVDYVKASLILIREFKEKPVNIICLGVSGTIRKAKIKFLGIKKPKRWFVIRRERLKAKKQK
Turning to B1, in series [1], the binding result is on record as “binds”.

B2: Mja POP5·RPP30 binary complex (complex, Methanocaldococcus jannaschii)
chain 1: MIEMLKTLPPTLREKKRYIAFKILYDEELKEGEVVNLIRKAVLEYYGSWGTSKANPWLVYYDFPYGILRCQRDNVDYVKASLILIREFKEKPVNIICLGVSGTIRKAKIKFLGIKKPKRWFVIRRERLKAKKQK
chain 2: MRIDINRIEKEEDIKLLKELKWNGFVFYQYDDEFSKDRYEEVKAIAESYKLKVYSGVKIKTESSKQLRDKVKKFRNKCHIILIEGGVLKINRAAVELHDVDILSTPELGRKDSGIDHVLARLASNHRVAIELNFKTLLNKDGYERARTLLFFRNNLKLAKKFDVPVVISTDAENKYQIKNPYDLRAFLNTLVEPLYAKKIMETAYKICDFRDYLMRDNVVRYGVEIIKEEKE
As for B2, in “native MS”, the binding result is reported as “binds”.

B3: Methanocaldococcus jannaschii (Mja) RPP29 (natural protein)
chain: MITPHNILRHELIGLKVEIVEAKNKAMIGIKGKVVDETRNTLVIEKEDGREVVIPKDIAVFLFQLKGCKVKVDGRLLIGRPEERLKKKIKILYPY
On to B3, for which the binding result in series [2] is “binds”.

B4: Mja RPP21·RPP29 binary complex (complex, Methanocaldococcus jannaschii)
chain 1: MKKFLEKKLKKIAYERIDILMSLAEEEAKKGNWDRAKRYVYLARRIAMKMRIRFPKKWKRRICKKCGTFLLYGRNARVRIKSKRYPHVVITCLECGAIYRIPMIREKKEKRRKKLEERLKAKSNSQTS
chain 2: MITPHNILRHELIGLKVEIVEAKNKAMIGIKGKVVDETRNTLVIEKEDGREVVIPKDIAVFLFQLKGCKVKVDGRLLIGRPEERLKKKIKILYPY
For the molecule B4, the binding result in the series “native MS” was “binds”.
